B1: chymase C22S/K40M/F41R/L99H/F173Y/D175W/S218L/A226R (enzyme)
chain: IIGGTESKPHSRPYMAYLEIVTSNGPSMRCGGFLIRRNFVLTAAHCAGRSITVTLGAHNITEEEDTWQKLEVIKQFRHPKYNTSTHHHDIMLLKLKEKASLTLAVGTLPFPSQFNFVPPGRMCRVAGWGRTGVLKPGSDTLQEVKLRLMDPQACSHYRWFDHNLQLCVGNPRKTKSAFKGDSGGPLLCAGVAQGIVSYGRLDAKPPRVFTRISHYRPWINQILQAN
B2: chymase C22S/P38Q/K40M/F41R/L99M/F173Y/D175N/V213Q/S218V/A226R/F228A (enzyme)
chain: B1 chain with P26Q, H86M, W159N, V196Q, L201V, F209A
B3: chymase C22S/K40L/F41R/L99H/F173Y/D175Y/S218I/A226R (enzyme)
chain: B1 chain with M28L, W159Y, L201I
B4: chymase C22S/P38Q/K40A/F41R/L99H/V138I/F173Y/D175N/A190S/V213A/S218V/A226R (enzyme)
chain: B1 chain with P26Q, M28A, V125I, W159N, A177S, V196A, L201V
B5: chymase C22S/P38Q/V213Q/A226R/F228A (enzyme)
chain: B1 chain with P26Q, M28K, R29F, H86L, Y157F, W159D, V196Q, L201S, F209A
B6: chymase C22S/P38Q/K40L/F41R/L99Q/V138I/F173Y/D175N/A190S/V213A/S218V/A226R (enzyme)
chain: B1 chain with P26Q, M28L, H86Q, V125I, W159N, A177S, V196A, L201V
B7: chymase C22S/P38Q/K40A/F41R/V138I/F173S/D175T/A190S/V213A/S218V/A226R (enzyme)
chain: B1 chain with P26Q, M28A, H86L, V125I, Y157S, W159T, A177S, V196A, L201V
B8: chymase C22S/K40L/F41R/L99G/F173Y/D175R/S218V/A226R (enzyme)
chain: B1 chain with M28L, H86G, W159R, L201V
B9: chymase C22S/P38Q/K40M/F41R/L99Y/V138I/F173L/D175S/A190S/V213A/S218V/A226R (enzyme)
chain: B1 chain with P26Q, H86Y, V125I, Y157L, W159S, A177S, V196A, L201V
B10: chymase C22S/P38Q/K40A/F41R/L99H/V138I/F173Y/A190S/V213A/S218V/A226R (enzyme)
chain: B1 chain with P26Q, M28A, V125I, W159D, A177S, V196A, L201V
B11: chymase C22S/P38Q/K40A/F41Q/V138I/F173S/D175W/A190S/V213A/S218V/A226R (enzyme)
chain: B1 chain with P26Q, M28A, R29Q, H86L, V125I, Y157S, A177S, V196A, L201V
B12: chymase C22S/P38Q/K40M/F41R/L99Y/V138I/F173L/D175Q/A190S/V213A/S218T/A226R (enzyme)
chain: B1 chain with P26Q, H86Y, V125I, Y157L, W159Q, A177S, V196A, L201T
B13: chymase C22S/K40M/F41R/L99Q/F173Y/D175R/S218V/A226R (enzyme)
chain: B1 chain with H86Q, W159R, L201V
B14: chymase C22S/P38Q/K40M/F41R/V138I/F173Y/D175R/A190S/V213A/S218V/A226R (enzyme)
chain: B1 chain with P26Q, H86L, V125I, W159R, A177S, V196A, L201V
B15: chymase C22S/K40M/F41R/L99Q/F173Y/D175R/S218I/A226R (enzyme)
chain: B1 chain with H86Q, W159R, L201I
B16: chymase C22S/P38Q/K40L/F41R/L99N/V138I/F173Y/D175N/A190S/V213A/S218V/A226R (enzyme)
chain: B1 chain with P26Q, M28L, H86N, V125I, W159N, A177S, V196A, L201V
B17: chymase C22S/P38Q/K40M/F41H/L99N/V138I/F173Y/D175S/A190S/V213A/S218T/A226R (enzyme)
chain: B1 chain with P26Q, R29H, H86N, V125I, W159S, A177S, V196A, L201T
B18: chymase C22S/P38Q/K40A/F41T/L99Y/V138I/F173S/D175H/A190S/V213A/S218I/A226R (enzyme)
chain: B1 chain with P26Q, M28A, R29T, H86Y, V125I, Y157S, W159H, A177S, V196A, L201I
B19: chymase C22S/P38Q/K40M/F41R/L99N/V138I/D175N/A190S/V213A/S218T/A226R (enzyme)
chain: B1 chain with P26Q, H86N, V125I, Y157F, W159N, A177S, V196A, L201T
B20: chymase C22S/P38Q/K40M/F41R/D175N/V213Q/S218V/A226R/F228A (enzyme)
chain: B1 chain with P26Q, H86L, Y157F, W159N, V196Q, L201V, F209A
B21: chymase C22S/P38Q/K40A/F41R/L99H/D175N/V213Q/S218I/A226R/F228A (enzyme)
chain: B1 chain with P26Q, M28A, Y157F, W159N, V196Q, L201I, F209A
B22: chymase C22S/P38Q/K40M/F41R/L99Y/V138I/F173S/D175S/A190S/V213A/S218T/A226R (enzyme)
chain: B1 chain with P26Q, H86Y, V125I, Y157S, W159S, A177S, V196A, L201T
B23: chymase C22S/P38Q/K40A/F41R/L99H/V138I/D175R/A190S/V213A/S218L/A226R (enzyme)
chain: B1 chain with P26Q, M28A, V125I, Y157F, W159R, A177S, V196A
B24: chymase C22S/P38Q/K40M/F41R/L99Q/V138I/F173Y/D175A/A190S/V213A/S218T/A226R (enzyme)
chain: B1 chain with P26Q, H86Q, V125I, W159A, A177S, V196A, L201T
B25: chymase C22S/P38Q/K40M/F41K/L99Y/V138I/F173M/D175Y/A190S/V213A/S218V/A226R (enzyme)
chain: B1 chain with P26Q, R29K, H86Y, V125I, Y157M, W159Y, A177S, V196A, L201V
B26: chymase C22S/P38Q/K40V/F41R/V138I/F173L/D175R/A190S/V213A/S218I/A226R (enzyme)
chain: B1 chain with P26Q, M28V, H86L, V125I, Y157L, W159R, A177S, V196A, L201I

Positions count from the first letter of the chain named. In names and notes the source's numbering stands.

The target of this assay is Human Factor B (human) (UniProt P00751). Briefly: cell-based or functional assay.
Sequence of Human Factor B (human) (P00751 26-764 limits assumed): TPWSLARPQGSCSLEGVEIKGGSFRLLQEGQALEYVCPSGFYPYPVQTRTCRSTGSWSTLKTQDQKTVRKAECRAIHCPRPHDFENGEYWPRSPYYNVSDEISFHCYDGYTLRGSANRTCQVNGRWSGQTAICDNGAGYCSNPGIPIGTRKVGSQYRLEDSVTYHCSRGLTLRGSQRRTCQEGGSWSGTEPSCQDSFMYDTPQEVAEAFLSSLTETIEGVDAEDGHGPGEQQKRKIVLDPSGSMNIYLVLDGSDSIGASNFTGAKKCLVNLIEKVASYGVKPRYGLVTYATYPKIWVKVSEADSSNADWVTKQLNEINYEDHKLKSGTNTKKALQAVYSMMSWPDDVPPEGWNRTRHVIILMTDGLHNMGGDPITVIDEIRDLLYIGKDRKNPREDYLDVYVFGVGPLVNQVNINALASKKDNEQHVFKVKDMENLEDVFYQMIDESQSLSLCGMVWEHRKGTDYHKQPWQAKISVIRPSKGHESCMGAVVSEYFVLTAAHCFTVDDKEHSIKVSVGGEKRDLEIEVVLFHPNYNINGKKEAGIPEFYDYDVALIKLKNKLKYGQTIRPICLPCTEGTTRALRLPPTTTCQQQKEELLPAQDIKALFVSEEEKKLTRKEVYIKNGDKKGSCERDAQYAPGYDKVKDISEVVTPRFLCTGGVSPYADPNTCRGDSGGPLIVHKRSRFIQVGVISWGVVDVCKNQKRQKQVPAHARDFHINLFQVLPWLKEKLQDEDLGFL
The molecule B1 returned a fB Cleavage EC50 of 181 nM and a fB Cleavage, 80% plasma EC50 of 7210 nM. B2 returned a fB Cleavage EC50 of 788 nM. B3: the fB Cleavage EC50 came out at 84 nM and the fB Cleavage, 80% plasma EC50 amounted to 5560 nM.

Turning to B4, the fB Cleavage EC50 was 71.8 nM. The same measure, in the same setting: to B5 belongs 6210 nM; to B6, 102 nM. Still for that read-out and setting: to B7 belongs 1720 nM. Turning to B8, the fB Cleavage EC50 turned out to be 333 nM and the fB Cleavage, 80% plasma EC50 stood at 8620 nM. The molecule B9 returned a fB Cleavage EC50 of 814 nM. Same read-out and setting: under B10 stands 406 nM.

B11 yielded a fB Cleavage EC50 of 2190 nM. The same measure, in the same setting: to B12 belongs 1650 nM. B13 registered a fB Cleavage EC50 of 235 nM and a fB Cleavage, 80% plasma EC50 of 4070 nM. Regarding B14, the EC50 (Factor B ELISA after digestion) stood at 30.2 nM and the fB Cleavage EC50 worked out at 28.1 nM.

For B15, the fB Cleavage EC50 amounted to 213 nM and the fB Cleavage, 80% plasma EC50 was 4480 nM. B16 came in with a fB Cleavage EC50 of 65.3 nM. Same read-out and setting: to B17 belongs 561 nM; to B18, 3130 nM; to B19, 449 nM. The molecule B20 came in with a fB Cleavage EC50 of 932 nM. On the same count and under the same terms, under B21 stands 553 nM. On the same count and under the same terms, under B22 stands 10600 nM.

As to B23, the fB Cleavage EC50 was 191 nM. The molecule B24 displayed a fB Cleavage EC50 of 724 nM.

Consider B25, for which the fB Cleavage EC50 stood at 448 nM. Molecule B26 had a fB Cleavage EC50 of 169 nM.
